Measured values as given in patent publication US20210032299A1 (Eli Lilly, published 2021).
Starred links: 1 amine or outer side, 2 acyl side, 3 side chain; linkers in the order of their positions; H or OH if unused. Non-standard residues stand in square brackets, D forms with d. Groups on a side chain read outwards from the residue. No end group written: not given here. *: point of attachment. C20 diacid = O=C(O)CCCCCCCCCCCCCCCCCCC(=O)*; γGlu = O=C(O)[C@H](CCC(=O)[*:2])N[*:1]; αMeF = C[C@](N)(Cc1ccccc1)C(=O)O; 4Pal = N[C@@H](Cc1ccncc1)C(=O)O; αMeL = CC(C)C[C@](C)(N)C(=O)O; AEEA = NCCOCCOCC(=O)O; Aib = CC(C)(N)C(=O)O

T1: human glucose-dependent insulinotropic peptide receptor (human, UniProt P48546 22-466)
T1 sequence (looked up): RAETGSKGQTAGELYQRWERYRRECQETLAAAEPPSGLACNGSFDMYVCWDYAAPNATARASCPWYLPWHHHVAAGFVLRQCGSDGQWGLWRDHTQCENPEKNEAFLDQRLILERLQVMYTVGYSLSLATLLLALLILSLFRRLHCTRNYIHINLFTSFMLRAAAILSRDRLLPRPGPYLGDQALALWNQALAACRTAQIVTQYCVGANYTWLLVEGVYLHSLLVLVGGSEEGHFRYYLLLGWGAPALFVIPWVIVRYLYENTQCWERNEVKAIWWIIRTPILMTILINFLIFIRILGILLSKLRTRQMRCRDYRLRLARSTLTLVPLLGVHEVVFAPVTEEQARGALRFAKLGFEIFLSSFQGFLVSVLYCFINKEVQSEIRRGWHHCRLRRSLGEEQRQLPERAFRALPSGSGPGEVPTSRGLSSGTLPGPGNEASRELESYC


Assays:
Test in all cases: cell-based or functional assay
human glucagon receptor = human glucagon receptor (human, UniProt P47871 26-477)
[1] = molecular target: T1, human glucose-dependent insulinotropic …
human GLP-1 receptor = human GLP-1 receptor (human, UniProt P43220 24-463)

Chain of human glucagon receptor (P47871 26-477): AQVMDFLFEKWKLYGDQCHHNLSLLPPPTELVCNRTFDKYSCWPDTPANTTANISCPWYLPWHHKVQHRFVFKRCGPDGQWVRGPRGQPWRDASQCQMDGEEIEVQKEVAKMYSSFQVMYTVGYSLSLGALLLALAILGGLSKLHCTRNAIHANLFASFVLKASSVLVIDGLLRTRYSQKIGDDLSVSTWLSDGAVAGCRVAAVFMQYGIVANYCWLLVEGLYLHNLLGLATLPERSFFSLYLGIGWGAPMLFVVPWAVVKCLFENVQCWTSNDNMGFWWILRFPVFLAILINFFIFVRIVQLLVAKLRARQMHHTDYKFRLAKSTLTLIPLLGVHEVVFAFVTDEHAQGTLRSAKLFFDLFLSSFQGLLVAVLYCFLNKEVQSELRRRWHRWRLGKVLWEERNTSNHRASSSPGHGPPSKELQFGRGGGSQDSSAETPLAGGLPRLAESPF

| Binder | hGcgR cAMP Rel EC50 (human glucagon receptor) [µM] | hGIPR cAMP Rel EC50 [1] [nM] | hGLP1R cAMP Rel EC50 (human GLP-1 receptor) [nM] |
| --- | --- | --- | --- |
| Y[Aib]EGT[αMeF]ISDYSI[αMeL]LDKK([AEEA-AEEA-γGlu-C20 diacid])HQ[Aib]EFVE[4Pal]LLAAGPSSGAPPPS-NH2 (N-terminus assumed; SMILES CC[C@H](C)[C@H](NC(=O)[C@H](CO)NC(=O)[C@H](Cc1ccc(O)cc1)NC(=O)[C@H](CC(=O)O)NC(=O)[C@H](CO)NC(=O)[C@@H](NC(=O)[C@](C)(Cc1ccccc1)NC(=O)[C@@H](NC(=O)CNC(=O)[C@H](CCC(=O)O)NC(=O)C(C)(C)NC(=O)[C@@H](N)Cc1ccc(O)cc1)[C@@H](C)O)[C@@H](C)CC)C(=O)N[C@@](C)(CC(C)C)C(=O)N[C@@H](CC(C)C)C(=O)N[C@@H](CC(=O)O)C(=O)N[C@@H](CCCCN)C(=O)N[C@@H](CCCCNC(=O)COCCOCCNC(=O)COCCOCCNC(=O)CC[C@H](NC(=O)CCCCCCCCCCCCCCCCCCC(=O)O)C(=O)O)C(=O)N[C@@H](Cc1c[nH]cn1)C(=O)N[C@@H](CCC(N)=O)C(=O)NC(C)(C)C(=O)N[C@@H](CCC(=O)O)C(=O)N[C@@H](Cc1ccccc1)C(=O)N[C@H](C(=O)N[C@@H](CCC(=O)O)C(=O)N[C@@H](Cc1ccncc1)C(=O)N[C@@H](CC(C)C)C(=O)N[C@@H](CC(C)C)C(=O)N[C@@H](C)C(=O)N[C@@H](C)C(=O)NCC(=O)N1CCC[C@H]1C(=O)N[C@@H](CO)C(=O)N[C@@H](CO)C(=O)NCC(=O)N[C@@H](C)C(=O)N1CCC[C@H]1C(=O)N1CCC[C@H]1C(=O)N1CCC[C@H]1C(=O)N[C@@H](CO)C(N)=O)C(C)C) [Example 62] | > 5 | 0.0116 | 58.2 |
| Y[Aib]EGTFISDYSI[αMeL]LDKK([AEEA-AEEA-γGlu-C20 diacid])HQ[Aib]EFVE[4Pal]LLAAGPSSGAPPPS-NH2 (N-terminus assumed; SMILES CC[C@H](C)[C@H](NC(=O)[C@H](Cc1ccccc1)NC(=O)[C@@H](NC(=O)CNC(=O)[C@H](CCC(=O)O)NC(=O)C(C)(C)NC(=O)[C@@H](N)Cc1ccc(O)cc1)[C@@H](C)O)C(=O)N[C@@H](CO)C(=O)N[C@@H](CC(=O)O)C(=O)N[C@@H](Cc1ccc(O)cc1)C(=O)N[C@@H](CO)C(=O)N[C@H](C(=O)N[C@@](C)(CC(C)C)C(=O)N[C@@H](CC(C)C)C(=O)N[C@@H](CC(=O)O)C(=O)N[C@@H](CCCCN)C(=O)N[C@@H](CCCCNC(=O)COCCOCCNC(=O)COCCOCCNC(=O)CC[C@H](NC(=O)CCCCCCCCCCCCCCCCCCC(=O)O)C(=O)O)C(=O)N[C@@H](Cc1c[nH]cn1)C(=O)N[C@@H](CCC(N)=O)C(=O)NC(C)(C)C(=O)N[C@@H](CCC(=O)O)C(=O)N[C@@H](Cc1ccccc1)C(=O)N[C@H](C(=O)N[C@@H](CCC(=O)O)C(=O)N[C@@H](Cc1ccncc1)C(=O)N[C@@H](CC(C)C)C(=O)N[C@@H](CC(C)C)C(=O)N[C@@H](C)C(=O)N[C@@H](C)C(=O)NCC(=O)N1CCC[C@H]1C(=O)N[C@@H](CO)C(=O)N[C@@H](CO)C(=O)NCC(=O)N[C@@H](C)C(=O)N1CCC[C@H]1C(=O)N1CCC[C@H]1C(=O)N1CCC[C@H]1C(=O)N[C@@H](CO)C(N)=O)C(C)C)[C@@H](C)CC) [Example 59] | > 5 | 0.0202 | > 5000 |
| Y[Aib]EGT[αMeF]ISDYSI[αMeL]LDKK([AEEA-AEEA-γGlu-C20 diacid])HQ[Aib]EFVE[4Pal]LLATGPSSGAPPPS-NH2 (N-terminus assumed; SMILES CC[C@H](C)[C@H](NC(=O)[C@H](CO)NC(=O)[C@H](Cc1ccc(O)cc1)NC(=O)[C@H](CC(=O)O)NC(=O)[C@H](CO)NC(=O)[C@@H](NC(=O)[C@](C)(Cc1ccccc1)NC(=O)[C@@H](NC(=O)CNC(=O)[C@H](CCC(=O)O)NC(=O)C(C)(C)NC(=O)[C@@H](N)Cc1ccc(O)cc1)[C@@H](C)O)[C@@H](C)CC)C(=O)N[C@@](C)(CC(C)C)C(=O)N[C@@H](CC(C)C)C(=O)N[C@@H](CC(=O)O)C(=O)N[C@@H](CCCCN)C(=O)N[C@@H](CCCCNC(=O)COCCOCCNC(=O)COCCOCCNC(=O)CC[C@H](NC(=O)CCCCCCCCCCCCCCCCCCC(=O)O)C(=O)O)C(=O)N[C@@H](Cc1c[nH]cn1)C(=O)N[C@@H](CCC(N)=O)C(=O)NC(C)(C)C(=O)N[C@@H](CCC(=O)O)C(=O)N[C@@H](Cc1ccccc1)C(=O)N[C@H](C(=O)N[C@@H](CCC(=O)O)C(=O)N[C@@H](Cc1ccncc1)C(=O)N[C@@H](CC(C)C)C(=O)N[C@@H](CC(C)C)C(=O)N[C@@H](C)C(=O)N[C@H](C(=O)NCC(=O)N1CCC[C@H]1C(=O)N[C@@H](CO)C(=O)N[C@@H](CO)C(=O)NCC(=O)N[C@@H](C)C(=O)N1CCC[C@H]1C(=O)N1CCC[C@H]1C(=O)N1CCC[C@H]1C(=O)N[C@@H](CO)C(N)=O)[C@@H](C)O)C(C)C) [Example 61] | > 5 | 0.0167 | 192 |
| Y[Aib]EGTFISDYSI[αMeL]LDKK([AEEA-AEEA-γGlu-C20 diacid])HQ[Aib]EFVE[4Pal]LLATGPSSGAPPPS-NH2 (N-terminus assumed; SMILES CC[C@H](C)[C@H](NC(=O)[C@H](Cc1ccccc1)NC(=O)[C@@H](NC(=O)CNC(=O)[C@H](CCC(=O)O)NC(=O)C(C)(C)NC(=O)[C@@H](N)Cc1ccc(O)cc1)[C@@H](C)O)C(=O)N[C@@H](CO)C(=O)N[C@@H](CC(=O)O)C(=O)N[C@@H](Cc1ccc(O)cc1)C(=O)N[C@@H](CO)C(=O)N[C@H](C(=O)N[C@@](C)(CC(C)C)C(=O)N[C@@H](CC(C)C)C(=O)N[C@@H](CC(=O)O)C(=O)N[C@@H](CCCCN)C(=O)N[C@@H](CCCCNC(=O)COCCOCCNC(=O)COCCOCCNC(=O)CC[C@H](NC(=O)CCCCCCCCCCCCCCCCCCC(=O)O)C(=O)O)C(=O)N[C@@H](Cc1c[nH]cn1)C(=O)N[C@@H](CCC(N)=O)C(=O)NC(C)(C)C(=O)N[C@@H](CCC(=O)O)C(=O)N[C@@H](Cc1ccccc1)C(=O)N[C@H](C(=O)N[C@@H](CCC(=O)O)C(=O)N[C@@H](Cc1ccncc1)C(=O)N[C@@H](CC(C)C)C(=O)N[C@@H](CC(C)C)C(=O)N[C@@H](C)C(=O)N[C@H](C(=O)NCC(=O)N1CCC[C@H]1C(=O)N[C@@H](CO)C(=O)N[C@@H](CO)C(=O)NCC(=O)N[C@@H](C)C(=O)N1CCC[C@H]1C(=O)N1CCC[C@H]1C(=O)N1CCC[C@H]1C(=O)N[C@@H](CO)C(N)=O)[C@@H](C)O)C(C)C)[C@@H](C)CC) [Example 58] | > 5 | 0.0183 | > 5000 |
| Y[Aib]EGT[αMeF]ISDYSI[αMeL]LDKK([AEEA-AEEA-γGlu-C20 diacid])HQ[Aib]EFVE[4Pal]LLAQGPSSGAPPPS-NH2 (N-terminus assumed; SMILES CC[C@H](C)[C@H](NC(=O)[C@H](CO)NC(=O)[C@H](Cc1ccc(O)cc1)NC(=O)[C@H](CC(=O)O)NC(=O)[C@H](CO)NC(=O)[C@@H](NC(=O)[C@](C)(Cc1ccccc1)NC(=O)[C@@H](NC(=O)CNC(=O)[C@H](CCC(=O)O)NC(=O)C(C)(C)NC(=O)[C@@H](N)Cc1ccc(O)cc1)[C@@H](C)O)[C@@H](C)CC)C(=O)N[C@@](C)(CC(C)C)C(=O)N[C@@H](CC(C)C)C(=O)N[C@@H](CC(=O)O)C(=O)N[C@@H](CCCCN)C(=O)N[C@@H](CCCCNC(=O)COCCOCCNC(=O)COCCOCCNC(=O)CC[C@H](NC(=O)CCCCCCCCCCCCCCCCCCC(=O)O)C(=O)O)C(=O)N[C@@H](Cc1c[nH]cn1)C(=O)N[C@@H](CCC(N)=O)C(=O)NC(C)(C)C(=O)N[C@@H](CCC(=O)O)C(=O)N[C@@H](Cc1ccccc1)C(=O)N[C@H](C(=O)N[C@@H](CCC(=O)O)C(=O)N[C@@H](Cc1ccncc1)C(=O)N[C@@H](CC(C)C)C(=O)N[C@@H](CC(C)C)C(=O)N[C@@H](C)C(=O)N[C@@H](CCC(N)=O)C(=O)NCC(=O)N1CCC[C@H]1C(=O)N[C@@H](CO)C(=O)N[C@@H](CO)C(=O)NCC(=O)N[C@@H](C)C(=O)N1CCC[C@H]1C(=O)N1CCC[C@H]1C(=O)N1CCC[C@H]1C(=O)N[C@@H](CO)C(N)=O)C(C)C) [Example 60] | > 5 | 0.0369 | 71 |
| Y[Aib]EGTFISDYSI[αMeL]LDKK([AEEA-AEEA-γGlu-C20 diacid])HQ[Aib]EFVEYLLEQGPSSGAPPPS-NH2 (N-terminus assumed; SMILES CC[C@H](C)[C@H](NC(=O)[C@H](Cc1ccccc1)NC(=O)[C@@H](NC(=O)CNC(=O)[C@H](CCC(=O)O)NC(=O)C(C)(C)NC(=O)[C@@H](N)Cc1ccc(O)cc1)[C@@H](C)O)C(=O)N[C@@H](CO)C(=O)N[C@@H](CC(=O)O)C(=O)N[C@@H](Cc1ccc(O)cc1)C(=O)N[C@@H](CO)C(=O)N[C@H](C(=O)N[C@@](C)(CC(C)C)C(=O)N[C@@H](CC(C)C)C(=O)N[C@@H](CC(=O)O)C(=O)N[C@@H](CCCCN)C(=O)N[C@@H](CCCCNC(=O)COCCOCCNC(=O)COCCOCCNC(=O)CC[C@H](NC(=O)CCCCCCCCCCCCCCCCCCC(=O)O)C(=O)O)C(=O)N[C@@H](Cc1c[nH]cn1)C(=O)N[C@@H](CCC(N)=O)C(=O)NC(C)(C)C(=O)N[C@@H](CCC(=O)O)C(=O)N[C@@H](Cc1ccccc1)C(=O)N[C@H](C(=O)N[C@@H](CCC(=O)O)C(=O)N[C@@H](Cc1ccc(O)cc1)C(=O)N[C@@H](CC(C)C)C(=O)N[C@@H](CC(C)C)C(=O)N[C@@H](CCC(=O)O)C(=O)N[C@@H](CCC(N)=O)C(=O)NCC(=O)N1CCC[C@H]1C(=O)N[C@@H](CO)C(=O)N[C@@H](CO)C(=O)NCC(=O)N[C@@H](C)C(=O)N1CCC[C@H]1C(=O)N1CCC[C@H]1C(=O)N1CCC[C@H]1C(=O)N[C@@H](CO)C(N)=O)C(C)C)[C@@H](C)CC) [Example 63] | 1.17 | 0.0398 | > 5000 |
